Laboratory results reported in publication PMC9482650, “Quantitative fragmentomics allow affinity mapping of interactomes” (Nature Communications, 2022).
Blank lines part the entries; values can stand above or below the binder they belong to.

Assays:
Assay in all cases: holdup assay
Design in all cases: key: below the threshold = too weak to quantify, mostly under pKd 3.1 to 4
APBA2_1, Q99767 = molecular target: T1, APBA2_1, Q99767
T1 sequence (Q99767 563-664, limits assumed, looked up): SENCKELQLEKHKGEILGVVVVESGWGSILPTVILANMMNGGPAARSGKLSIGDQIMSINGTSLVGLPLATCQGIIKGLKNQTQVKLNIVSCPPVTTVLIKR

APBA2_2, Q99767 = molecular target: T2, APBA2_2, Q99767
T2 sequence (Q99767 654-744, limits assumed, looked up): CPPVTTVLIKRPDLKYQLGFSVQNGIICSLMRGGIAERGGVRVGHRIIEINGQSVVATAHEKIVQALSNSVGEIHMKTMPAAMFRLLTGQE

DFNB31_2, Q9P202 = molecular target: T3, DFNB31_2, Q9P202
T3 sequence (Q9P202 274-371, limits assumed, looked up): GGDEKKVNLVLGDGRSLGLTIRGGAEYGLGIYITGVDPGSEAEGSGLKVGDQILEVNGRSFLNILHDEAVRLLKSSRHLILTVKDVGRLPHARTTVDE

DLG1_1, Q12959 = molecular target: DLG1_1, Q12959
DLG5_1, Q8TDM6 = molecular target: DLG5_1, Q8TDM6
DVL3, Q92997 = molecular target: T4, DVL3, Q92997
T4 sequence (Q92997 244-331, limits assumed, looked up): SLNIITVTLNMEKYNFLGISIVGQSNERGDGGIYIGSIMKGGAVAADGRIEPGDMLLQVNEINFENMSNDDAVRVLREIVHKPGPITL

GRIP2_3, Q9C0E4 = molecular target: GRIP2_3, Q9C0E4
GRIP2_6, Q9C0E4 = molecular target: GRIP2_6, Q9C0E4
IL16_3, Q14005 = molecular target: IL16_3, Q14005
IL16_4, Q14005 = molecular target: IL16_4, Q14005
LIMK2, P53671 = molecular target: LIMK2, P53671
LNX2_3, Q8N448 = molecular target: T5, LNX2_3, Q8N448
T5 sequence (Q8N448 463-564, limits assumed, looked up): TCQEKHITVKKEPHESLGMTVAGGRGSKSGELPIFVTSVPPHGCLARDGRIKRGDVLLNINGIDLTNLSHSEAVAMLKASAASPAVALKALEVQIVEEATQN

MPDZ_10, O75970 = molecular target: T6, MPDZ_10, O75970
T6 sequence (O75970 1624-1722, limits assumed, looked up): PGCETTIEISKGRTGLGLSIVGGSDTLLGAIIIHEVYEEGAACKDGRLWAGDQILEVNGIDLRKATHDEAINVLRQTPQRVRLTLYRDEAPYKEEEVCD

MPP6, Q9NZW5 = molecular target: T7, MPP6, Q9NZW5
T7 sequence (Q9NZW5 125-219, limits assumed, looked up): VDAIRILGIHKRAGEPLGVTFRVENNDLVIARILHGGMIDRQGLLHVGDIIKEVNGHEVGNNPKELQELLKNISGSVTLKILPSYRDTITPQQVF

NHERF4_1, Q86UT5-2 = molecular target: NHERF4_1, Q86UT5-2
PDZD2_2, O15018 = molecular target: T8, PDZD2_2, O15018
T8 sequence (O15018 329-429, limits assumed, looked up): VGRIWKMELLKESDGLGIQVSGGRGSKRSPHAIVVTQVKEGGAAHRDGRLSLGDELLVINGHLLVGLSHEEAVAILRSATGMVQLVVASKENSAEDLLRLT

RAPGEF6, Q8TEU7 = molecular target: T9, RAPGEF6, Q8TEU7
T9 sequence (Q8TEU7 525-625, limits assumed, looked up): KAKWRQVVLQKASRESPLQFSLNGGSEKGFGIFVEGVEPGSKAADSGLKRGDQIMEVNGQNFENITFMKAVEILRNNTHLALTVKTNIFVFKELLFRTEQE

SCRIB_2, Q14160 = molecular target: SCRIB_2, Q14160
SCRIB_3, Q14160 = molecular target: SCRIB_3, Q14160
SNTB1, Q13884 = molecular target: T10, SNTB1, Q13884
T10 sequence (Q13884 107-205, limits assumed, looked up): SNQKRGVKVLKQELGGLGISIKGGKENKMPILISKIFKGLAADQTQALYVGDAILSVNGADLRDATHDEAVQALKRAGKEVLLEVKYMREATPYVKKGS

SNX27, Q96L92 = molecular target: SNX27, Q96L92
TJP1_2, Q07157 = molecular target: TJP1_2, Q07157
TJP2_1, Q9UDY2 = molecular target: TJP2_1, Q9UDY2
ARHGEF11, O15085 = molecular target: T11, ARHGEF11, O15085; settings: plain residues with an end cap or a label only (N-terminal biotin on a linker: ttds)
T11 sequence (O15085 42-136, limits assumed, looked up): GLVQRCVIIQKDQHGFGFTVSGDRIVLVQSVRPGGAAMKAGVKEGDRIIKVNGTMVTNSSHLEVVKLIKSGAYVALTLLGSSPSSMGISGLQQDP

GRASP, Q7Z6J2 = settings: plain residues with an end cap or a label only (N-terminal biotin on a linker: ttds)
HTRA1, Q92743 = settings: plain residues with an end cap or a label only (N-terminal biotin on a linker: ttds)
[1] = plain residues with an end cap or a label only (N-terminal biotin on a linker: ahx)
[2] = plain residues with an end cap or a label only (N-terminal biotin on a linker: ttds)

Chain of IL16_3, Q14005 (Q14005 1107-1207): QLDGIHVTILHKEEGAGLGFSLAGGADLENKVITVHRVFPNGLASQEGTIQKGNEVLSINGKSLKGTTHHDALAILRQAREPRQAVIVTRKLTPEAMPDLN
Chain of LIMK2, P53671 (P53671 143-248): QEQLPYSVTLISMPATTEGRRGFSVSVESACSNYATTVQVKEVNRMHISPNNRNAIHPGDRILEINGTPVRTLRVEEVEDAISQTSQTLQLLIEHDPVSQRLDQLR
Chain of IL16_4, Q14005 (Q14005 1229-1329): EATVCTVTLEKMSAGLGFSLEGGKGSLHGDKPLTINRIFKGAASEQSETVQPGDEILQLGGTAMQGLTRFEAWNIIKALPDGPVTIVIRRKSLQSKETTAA
Chain of TJP2_1, Q9UDY2 (Q9UDY2 24-128): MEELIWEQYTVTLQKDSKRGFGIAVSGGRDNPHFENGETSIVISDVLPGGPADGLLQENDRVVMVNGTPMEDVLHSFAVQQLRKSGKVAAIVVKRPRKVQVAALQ
Chain of DLG5_1, Q8TDM6 (Q8TDM6 617-713): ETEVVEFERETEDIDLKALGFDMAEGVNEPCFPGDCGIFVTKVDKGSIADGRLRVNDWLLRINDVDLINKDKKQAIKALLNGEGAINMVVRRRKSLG
Chain of NHERF4_1, Q86UT5-2 (Q86UT5 other isoform, or with tags, fused parts or gaps): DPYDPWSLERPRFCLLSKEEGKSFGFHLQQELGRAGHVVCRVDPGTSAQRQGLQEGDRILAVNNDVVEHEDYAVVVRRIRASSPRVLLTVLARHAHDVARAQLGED
Chain of TJP1_2, Q07157 (Q07157 181-274): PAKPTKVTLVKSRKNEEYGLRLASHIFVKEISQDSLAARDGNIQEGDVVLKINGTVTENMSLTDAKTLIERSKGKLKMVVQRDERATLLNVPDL
Chain of SCRIB_3, Q14160 (Q14160 999-1103): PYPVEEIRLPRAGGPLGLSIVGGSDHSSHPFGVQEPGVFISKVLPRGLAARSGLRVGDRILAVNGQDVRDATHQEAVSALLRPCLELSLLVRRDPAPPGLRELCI
Chain of GRIP2_3, Q9C0E4 (Q9C0E4 238-339): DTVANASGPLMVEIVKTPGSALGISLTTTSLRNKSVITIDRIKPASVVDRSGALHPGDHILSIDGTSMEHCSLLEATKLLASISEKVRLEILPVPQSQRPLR
Chain of SCRIB_2, Q14160 (Q14160 857-960): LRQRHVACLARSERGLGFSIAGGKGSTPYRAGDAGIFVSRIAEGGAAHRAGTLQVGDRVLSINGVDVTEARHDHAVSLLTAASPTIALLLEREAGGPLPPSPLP
Chain of GRIP2_6, Q9C0E4 (Q9C0E4 648-740): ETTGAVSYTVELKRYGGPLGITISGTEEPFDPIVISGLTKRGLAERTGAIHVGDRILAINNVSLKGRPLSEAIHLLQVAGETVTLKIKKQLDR
Chain of GRASP, Q7Z6J2 (Q7Z6J2 96-193): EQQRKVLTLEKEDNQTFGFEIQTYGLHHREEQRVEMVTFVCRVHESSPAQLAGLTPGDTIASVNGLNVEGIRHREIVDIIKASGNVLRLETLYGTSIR
Chain of HTRA1, Q92743 (Q92743 360-477): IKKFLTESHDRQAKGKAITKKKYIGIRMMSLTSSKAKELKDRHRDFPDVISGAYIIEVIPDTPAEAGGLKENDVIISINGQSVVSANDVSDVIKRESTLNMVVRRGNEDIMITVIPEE

pKd (APBA2_1, Q99767; [1]): below the threshold
pKd (APBA2_2, Q99767; [1]): below the threshold
pKd (DFNB31_2, Q9P202; [1]): below the threshold
pKd (DLG1_1, Q12959; [1]): below the threshold
pKd (DLG5_1, Q8TDM6; [1]): below the threshold
pKd (DVL3, Q92997; [1]): below the threshold
pKd (GRIP2_3, Q9C0E4; [1]): below the threshold
pKd (GRIP2_6, Q9C0E4; [1]): below the threshold
pKd (IL16_3, Q14005; [1]): below the threshold
pKd (IL16_4, Q14005; [1]): below the threshold
pKd (LIMK2, P53671; [1]): below the threshold
pKd (LNX2_3, Q8N448; [1]): below the threshold
pKd (MPDZ_10, O75970; [1]): 4.07
pKd (MPP6, Q9NZW5; [1]): below the threshold
pKd (NHERF4_1, Q86UT5-2; [1]): below the threshold
pKd (PDZD2_2, O15018; [1]): 4.54
pKd (RAPGEF6, Q8TEU7; [1]): below the threshold
pKd (SCRIB_2, Q14160; [1]): below the threshold
pKd (SCRIB_3, Q14160; [1]): below the threshold
pKd (SNTB1, Q13884; [1]): below the threshold
pKd (SNX27, Q96L92; [1]): below the threshold
pKd (TJP1_2, Q07157; [1]): below the threshold
pKd (TJP2_1, Q9UDY2; [1]): 4.09
Binder: LCKSHAFSHV [PDLIM7, Q9NR12;Q9NR12-1]

pKd (APBA2_1, Q99767; [2]): below the threshold
pKd (APBA2_2, Q99767; [2]): below the threshold
pKd (ARHGEF11, O15085): below the threshold
pKd (DFNB31_2, Q9P202; [2]): below the threshold
pKd (DLG1_1, Q12959; [2]): 3.53
pKd (DLG5_1, Q8TDM6; [2]): below the threshold
pKd (DVL3, Q92997; [2]): below the threshold
pKd (GRASP, Q7Z6J2): 4.56
pKd (GRIP2_3, Q9C0E4; [2]): below the threshold
pKd (GRIP2_6, Q9C0E4; [2]): below the threshold
pKd (HTRA1, Q92743): below the threshold
pKd (IL16_3, Q14005; [2]): below the threshold
pKd (IL16_4, Q14005; [2]): below the threshold
pKd (LIMK2, P53671; [2]): below the threshold
pKd (LNX2_3, Q8N448; [2]): below the threshold
pKd (MPDZ_10, O75970; [2]): 3.59
pKd (MPP6, Q9NZW5; [2]): 3.52
pKd (NHERF4_1, Q86UT5-2; [2]): 3.52
pKd (PDZD2_2, O15018; [2]): 3.79
pKd (RAPGEF6, Q8TEU7; [2]): 3.67
pKd (SCRIB_2, Q14160; [2]): below the threshold
pKd (SCRIB_3, Q14160; [2]): below the threshold
pKd (SNTB1, Q13884; [2]): below the threshold
pKd (SNX27, Q96L92; [2]): below the threshold
pKd (TJP1_2, Q07157; [2]): below the threshold
pKd (TJP2_1, Q9UDY2; [2]): 3.71
Binder: QPGTPTRTAV [MAP2K2, P36507]

pKd (APBA2_1, Q99767; [2]): below the threshold
pKd (APBA2_2, Q99767; [2]): below the threshold
pKd (ARHGEF11, O15085): 4
pKd (DFNB31_2, Q9P202; [2]): below the threshold
pKd (DLG1_1, Q12959; [2]): 3.79
pKd (DLG5_1, Q8TDM6; [2]): below the threshold
pKd (DVL3, Q92997; [2]): below the threshold
pKd (GRASP, Q7Z6J2): below the threshold
pKd (GRIP2_3, Q9C0E4; [2]): below the threshold
pKd (GRIP2_6, Q9C0E4; [2]): 3.54
pKd (HTRA1, Q92743): below the threshold
pKd (IL16_3, Q14005; [2]): below the threshold
pKd (IL16_4, Q14005; [2]): below the threshold
pKd (LIMK2, P53671; [2]): below the threshold
pKd (LNX2_3, Q8N448; [2]): below the threshold
pKd (MPDZ_10, O75970; [2]): below the threshold
pKd (MPP6, Q9NZW5; [2]): below the threshold
pKd (NHERF4_1, Q86UT5-2; [2]): below the threshold
pKd (PDZD2_2, O15018; [2]): 3.59
pKd (RAPGEF6, Q8TEU7; [2]): below the threshold
pKd (SCRIB_2, Q14160; [2]): 4.35
pKd (SCRIB_3, Q14160; [2]): 5.23
pKd (SNTB1, Q13884; [2]): 5.51
pKd (SNX27, Q96L92; [2]): 4.44
pKd (TJP1_2, Q07157; [2]): below the threshold
pKd (TJP2_1, Q9UDY2; [2]): below the threshold
Binder: CLDTSRETDL [KCNA5, P22460]
